Experimental data as given in paper doi:10.1101/2025.03.04.641395.

What was measured:
[1] = biological target: ForJ (Streptomyces formicae); experiment: mass photometry
[2] = biological target: ForJ (Streptomyces formicae); experiment: non-reducing SDS-PAGE
[3] = biological target: ForJ (Streptomyces formicae); experiment: mass photometry; remark: listed apart in the source
[4] = biological target: ForJ (Streptomyces formicae); experiment: non-reducing SDS-PAGE; remark: listed apart in the source

- stoichiometry N [1]: 2
- stoichiometry N [2]: 2
- stoichiometry N [3]: 4
- stoichiometry N [4]: 4
Substance: ForJ (natural protein)
